# Results taken from US12202907B2, “Nucleic acids encoding and methods of producing proteins comprising antibody chains” (Innate Pharma, priority 2018, dated 2025).
# Tests used:
# [1] = target: T1, CD39 mutants transfected in Hek-293T cells (Homo sapiens, UniProt P49961, E143A/N99A/Q96A/R147E); assay: Epitope mapping: binding to CD39 mutants by flow cytometry; settings: mutant 5: Q96A, N99A, E143A, R147E
# T1 construct: expressed in transfected cells; host or cells: HEK293T
# T1 sequence (P49961 1-510 Q96A/N99A/E143A/R147E): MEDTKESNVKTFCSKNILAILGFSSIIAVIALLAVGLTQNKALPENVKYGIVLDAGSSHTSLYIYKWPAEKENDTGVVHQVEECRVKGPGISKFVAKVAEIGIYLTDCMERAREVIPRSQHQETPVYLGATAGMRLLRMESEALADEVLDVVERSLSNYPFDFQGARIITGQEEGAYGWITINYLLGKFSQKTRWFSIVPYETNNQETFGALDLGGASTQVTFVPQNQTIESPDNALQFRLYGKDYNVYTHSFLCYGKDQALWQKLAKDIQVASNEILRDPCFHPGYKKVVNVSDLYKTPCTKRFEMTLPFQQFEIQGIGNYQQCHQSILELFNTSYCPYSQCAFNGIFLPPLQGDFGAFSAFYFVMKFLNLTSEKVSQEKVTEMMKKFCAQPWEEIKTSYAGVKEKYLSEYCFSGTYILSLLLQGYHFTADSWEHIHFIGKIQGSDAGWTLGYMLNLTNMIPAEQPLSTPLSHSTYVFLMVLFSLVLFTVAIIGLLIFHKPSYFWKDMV
# Experimental: CD39 mutants were generated by PCR. The sequences amplified were run on agarose gel and purified using the Macherey Nagel PCR Clean-Up Gel Extraction kit (reference 740609). The purified PCR products generated for each mutant were then ligated into an expression vector, with the ClonTech InFusion system. The vectors containing the mutated sequences were prepared as Miniprep and sequenced. After sequencing, the vectors containing the mutated sequences were prepared as Midiprep using the Promega PureYield™ Plasmid Midiprep System. HEK293T cells were grown in DMEM medium (Invitrogen), transfected with vectors using Invitrogen's Lipofectamine 2000 and incubated at 37° C. in a CO2 incubator for 48 hours prior to testing for transgene expression. The targeted amino acid mutations in the table 1 below are shown using numbering of SEQ ID NO: 1.
# In order to define the epitopes of anti-CD39 antibodies, we designed CD39 mutants defined by substitutions of amino acids exposed at the molecular surface over the surface of CD39.
# Dose-ranges of I-394 (10-2.5-0.625-0.1563-0.0391-0.0098-0.0024-0.0006 μg/ml) are tested on the 20 generated mutants by flow cytometry. […] Mutant 5 contains amino acid substitutions at residues Q96, N99, E143 and R147. […]
# [2] = target: T2, CHO cells expressing murine CD39 (Mus musculus, UniProt P55772); assay: Antibody titration on CHO-moCD39 by flow cytometry; assay type: binding; settings: qualitative
# T2 construct: expressed in transfected cells; host or cells: CHO
# T2 sequence (P55772 1-510): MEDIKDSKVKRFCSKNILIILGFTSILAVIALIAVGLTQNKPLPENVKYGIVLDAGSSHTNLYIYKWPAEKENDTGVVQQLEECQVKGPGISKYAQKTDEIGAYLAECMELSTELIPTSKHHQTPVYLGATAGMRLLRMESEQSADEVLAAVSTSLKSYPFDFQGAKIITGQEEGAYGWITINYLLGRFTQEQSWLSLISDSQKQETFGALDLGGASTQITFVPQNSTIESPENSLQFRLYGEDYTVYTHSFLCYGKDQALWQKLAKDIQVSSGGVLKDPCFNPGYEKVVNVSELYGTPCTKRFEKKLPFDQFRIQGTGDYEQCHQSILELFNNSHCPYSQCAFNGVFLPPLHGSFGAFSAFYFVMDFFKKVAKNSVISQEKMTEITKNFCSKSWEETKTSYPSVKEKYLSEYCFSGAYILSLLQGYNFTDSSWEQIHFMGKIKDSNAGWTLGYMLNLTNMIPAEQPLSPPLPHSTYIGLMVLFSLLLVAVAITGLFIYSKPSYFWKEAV
# Experimental: Antibody I-394 was tested in two repeated experiments for binding to CHO cells expressing human CD39, CHO cells expressing cynomolgus (Macaca fascicularis) CD39, CHO cells expressing murine CD39, and human Ramos lymphoma cells (ATCC™, reference CRL-1596). Cells were incubated with various concentration of unlabeled anti-CD39 antibody from 30 μg/ml to 5×10^−4 μg/ml, for 30 minutes at 4° C. After washes, cells were incubated with Goat anti-mouse H+L labeled secondary antibody for 30 min at 4° C.
# [3] = target: T3, Human CD39-L2 (NTPDase6, ENTPD6) (Homo sapiens, UniProt O75354, K202E); assay: ELISA titration on CD39-L2; assay type: binding
# T3 sequence (O75354 1-484 K202E): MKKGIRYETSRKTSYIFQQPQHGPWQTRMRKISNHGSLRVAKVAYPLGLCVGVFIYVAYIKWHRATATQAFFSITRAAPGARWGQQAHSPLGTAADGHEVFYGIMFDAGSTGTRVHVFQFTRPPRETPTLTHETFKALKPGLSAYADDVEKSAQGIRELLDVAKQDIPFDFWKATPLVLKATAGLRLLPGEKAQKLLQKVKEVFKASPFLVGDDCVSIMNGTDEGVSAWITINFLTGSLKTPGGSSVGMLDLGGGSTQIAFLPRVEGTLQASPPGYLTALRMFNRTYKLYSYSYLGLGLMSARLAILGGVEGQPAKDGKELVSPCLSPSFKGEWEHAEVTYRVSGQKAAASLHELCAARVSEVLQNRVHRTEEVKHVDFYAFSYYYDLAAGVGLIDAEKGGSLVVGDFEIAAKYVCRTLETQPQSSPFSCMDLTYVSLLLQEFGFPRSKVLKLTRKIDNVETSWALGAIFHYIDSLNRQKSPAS
# Experimental: Antibody I-394 was tested for binding to recombinant human CD39 isoforms (Rec-huCD39 isoforms) having amino acid sequences shown below were coated in 96-well plate in PBS 1X at 500 ng/ml or 1 μg/ml at 4° C. overnight. Wells were washed in TBS Tween® 20 (polysorbate 20), and further saturated 2H at RT in TBS Blocking buffer. Dose range concentration of primary antibody was incubated in TBS blocking buffer for 2 h at RT. Wells were washed in TBS Tween® 20 (polysorbate 20). […] Optical density was measured on Enspire™ at OD=450.
substance,measurement,setting,value
"I-394: anti-CD39 antibody, VH SEQ ID NO: 6, VL SEQ ID NO: 7, human IgG1 Fc with L234A/L235E/G237A/A330S/P331S",binding to cells expressing mutant 5 of CD39,[1],strongly reduced binding to mutant 5 (but with some residual binding to mutant 5)
same,binding to cells expressing murine CD39 (CHO-moCD39),[2],but not to cells expressing murine CD39
same,binding to CD39-L2 in ELISA,[3],"not to any of the isoforms CD39-L1, -L2, -L3 or -L4"
